Assay results from patent US20260273049A1 (ALLIGATOR BIOSCIENCE, published 2026).

Key:
[1] = target: T1, human CEACAM1 expressed on CHO cells (human, UniProt P13688 35-526); assay: flow cytometry on CEACAM1-transfected CHO cells, fluorochrome-conjugated anti-human IgG [1/2) B]
T1 construct: whole, on cells; also called CHO-CEACAM1; CEACAM1 on cells
T1 sequence (looked up): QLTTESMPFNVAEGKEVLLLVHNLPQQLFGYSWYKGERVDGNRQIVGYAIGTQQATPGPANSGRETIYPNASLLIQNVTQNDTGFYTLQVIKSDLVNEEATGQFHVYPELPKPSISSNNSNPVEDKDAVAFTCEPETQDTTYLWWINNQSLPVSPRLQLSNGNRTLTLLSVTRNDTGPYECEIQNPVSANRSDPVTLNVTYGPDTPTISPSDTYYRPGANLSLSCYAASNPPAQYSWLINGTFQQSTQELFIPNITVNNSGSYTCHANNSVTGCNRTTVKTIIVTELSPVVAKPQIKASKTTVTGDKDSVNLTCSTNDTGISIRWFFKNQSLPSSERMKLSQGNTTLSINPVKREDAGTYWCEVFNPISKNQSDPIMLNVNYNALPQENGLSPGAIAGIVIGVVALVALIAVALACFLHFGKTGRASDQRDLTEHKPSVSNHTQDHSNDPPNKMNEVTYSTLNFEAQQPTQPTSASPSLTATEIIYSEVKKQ
Excerpt: The human CEACAM5 and CEACAM1 genes were cloned into pcDNA3.1, and the vector was subsequently stably transfected into CHO cells. […] Binding of the antibodies was detected using fluorochrome-conjugated anti-human IgG and analyzed using flow cytometry.

[2] = target: T2, human CEACAM6 (hCEACAM-6, #3934-CM-050, R&D Systems) (human, UniProt P40199 35-320); assay: ELISA; antigen coated at 0.5 µg/mL, bsAb titrated, anti-human kappa-HRP, luminescence [5/7) Multi44]
T2 construct: Bought protein
T2 sequence (looked up): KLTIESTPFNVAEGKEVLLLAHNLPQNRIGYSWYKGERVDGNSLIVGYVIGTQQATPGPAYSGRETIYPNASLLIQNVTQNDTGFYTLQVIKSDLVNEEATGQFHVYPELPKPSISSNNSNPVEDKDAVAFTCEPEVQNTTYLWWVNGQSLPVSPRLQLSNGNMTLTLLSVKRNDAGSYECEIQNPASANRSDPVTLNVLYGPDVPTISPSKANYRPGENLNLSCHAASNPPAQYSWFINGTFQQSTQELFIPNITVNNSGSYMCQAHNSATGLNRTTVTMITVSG
Description: (§1) 96-well plates were coated with 0.5 μg/mL antigen, hCEACAM-1 (2244-CM-050, R&D Systems), hCEACAM-5 (4128-CM-050, R&D Systems), hCEACAM-6 (3934-CM-050, R&D Systems) or CEACAM-8 (9639-CM-050, R&D Systems) in PBS over night at 4° C. After washing in PBS/0.05% Tween 20 (PBST), the plates were blocked with PBST, 2% BSA for at least 30 minutes at room temperature before a second round of washing. RUBY bsAbs, diluted in PBST, 0.5% BSA, were then added and allowed to bind for at least 1 hour at room temperature. […] Finally, a final round of washing was performed and bound complexes detected using SuperSignal Pico Luminescent as substrate and luminescence signals were measured using Fluostar Optima.

[3] = target: T3, human CEACAM1 (hCEACAM-1, #2244-CM-050, R&D Systems) (human, UniProt P13688 35-428); assay: as above
T3 construct: Bought protein
T3 sequence (looked up): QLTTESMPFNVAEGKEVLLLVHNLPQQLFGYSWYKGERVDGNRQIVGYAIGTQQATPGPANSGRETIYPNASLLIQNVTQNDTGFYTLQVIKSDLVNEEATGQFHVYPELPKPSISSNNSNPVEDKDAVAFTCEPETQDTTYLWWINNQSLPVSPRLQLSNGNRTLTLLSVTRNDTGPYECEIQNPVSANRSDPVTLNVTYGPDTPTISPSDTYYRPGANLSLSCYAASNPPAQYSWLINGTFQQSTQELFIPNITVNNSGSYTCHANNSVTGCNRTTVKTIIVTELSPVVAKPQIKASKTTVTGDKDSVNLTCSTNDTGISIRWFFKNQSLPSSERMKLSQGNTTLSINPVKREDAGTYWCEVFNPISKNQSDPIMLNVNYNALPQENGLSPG
Description: as §1

[4] = target: human CD40 expressed on cells (CD40 reporter cells, HEK Blue CD40L cells, B cells, Raji cells) (human, UniProt P25942 21-277); assay: cell-based or functional assay
Sequence of human CD40 expressed on cells (CD40 reporter cells, HEK Blue CD40L cells, B cells, Raji cells) (P25942 21-277): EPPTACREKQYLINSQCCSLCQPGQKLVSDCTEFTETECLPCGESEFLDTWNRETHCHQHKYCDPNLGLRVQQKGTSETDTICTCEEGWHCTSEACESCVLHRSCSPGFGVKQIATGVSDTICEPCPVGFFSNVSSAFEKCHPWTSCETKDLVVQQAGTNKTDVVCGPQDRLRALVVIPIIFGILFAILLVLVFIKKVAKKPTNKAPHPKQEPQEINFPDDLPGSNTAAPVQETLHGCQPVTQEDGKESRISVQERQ

B1: Multi44 (bispecific antibody)
heavy 1: not shown
light: DIQMTQSPSSLSASVGDRVTITCRASQSISSYLNWYQEKPGKAPKLLIYAASSLQSGVPSRFSGSGSGTDFTLTISSLQPEDFATYYCQQWGYLLTFGQGTKLEIKRTVAAPSVFIFPPSDEQLKSGTASVVCYLNNFYPREAKVQWKVDNALQSGNSQESVTEQDSKDSTYSLWSTLTLSKADYEKHKVYACEVTHQGLSSPVTKSFNRGEC
heavy 2: EVQLLESGGGLVQPGGSLRLSCAASGFTFSTYGMHWVREAPGKGLEWLSYISGGSSYIFYADSVKGRFTISRDNSKNTLYLQMNSLRAEDTAVYYCARILRGGSGMDLWGQGTLVTVSSASTKGPSVFPLAPSSKSTSGGTAALGCLVKDYFPEPVTVSWNSGALTSGVHTFPAVLQSSGLYSLTSVVEVPSSSLGTQTYICNVNHKPSNTKVDKKVEPKSC
notes: Optimized RUBY format; copies: 2 + 2 + 2
B1: no binding (tested: 400 nM) [1]; no binding (tested: 100 nM) [2]; no binding (tested: 100 nM) [3]. The “EC50 (nM), HEK Blue CD40L SEAP reporter, CHO-CEACAM5 crosslinking, 0 Raji sink cells/well” value [4] was 0.02 nM, the “EC50 (nM), HEK Blue CD40L SEAP reporter, CHO-CEACAM5 crosslinking, 10 000 Raji sink cells/well” value [4] was 0.05 nM and the “EC50 (nM), HEK Blue CD40L SEAP reporter, CHO-CEACAM5 crosslinking, 30 000 Raji sink cells/well” value [4] was 0.08 nM. The “EC50 (nM), HEK Blue CD40L SEAP reporter, CHO-CEACAM5 crosslinking, 90 000 Raji sink cells/well” value [4] was 0.16 nM.
